Experimental data: US20050002930A1

Biological target: α5β1 integrin on CD14+ blood monocytes of the dosed animals
Test: FACS occupancy on blood monocytes compared with serum levels of M200

serum concentration sufficient to completely saturate monocyte α5β1 integrin binding sites: 60 µg/mL
B1: M200 chimeric (mouse/human IgG4) anti-α5β1 integrin antibody (antibody, V domains shown)
VH: QVQLKESGPGLVAPSQSLSITCTISGFSLTDYGVHWVRQPPGKGLEWLVVIWSDGSSTYNSALKSRMTIRKDNSKSQVFLIMNSLQTDDSAMYYCARHGTYYGMTTTGDALDYWGQGTSVTVSS
VL: QIVLTQSPAIMSASLGERVTMTCTASSSVSSNYLHWYQQKPGSAPNLWIYSTSNLASGVPARFSGSGSGTSYSLTISSMEAEDAATYYCHQYLRSPPTFGGGTKLEIKR
